Data reported in doi:10.1101/2022.01.13.476221.
* marks the point of attachment. Biotin = O=C1N[C@H]2[C@H](CS[C@H]2CCCCC(=O)*)N1

Experiments:
[1] = biological target: T1, unphosphorylated human MST2-FL (residues 1-484) (human) (UniProt Q13188)
T1 sequence: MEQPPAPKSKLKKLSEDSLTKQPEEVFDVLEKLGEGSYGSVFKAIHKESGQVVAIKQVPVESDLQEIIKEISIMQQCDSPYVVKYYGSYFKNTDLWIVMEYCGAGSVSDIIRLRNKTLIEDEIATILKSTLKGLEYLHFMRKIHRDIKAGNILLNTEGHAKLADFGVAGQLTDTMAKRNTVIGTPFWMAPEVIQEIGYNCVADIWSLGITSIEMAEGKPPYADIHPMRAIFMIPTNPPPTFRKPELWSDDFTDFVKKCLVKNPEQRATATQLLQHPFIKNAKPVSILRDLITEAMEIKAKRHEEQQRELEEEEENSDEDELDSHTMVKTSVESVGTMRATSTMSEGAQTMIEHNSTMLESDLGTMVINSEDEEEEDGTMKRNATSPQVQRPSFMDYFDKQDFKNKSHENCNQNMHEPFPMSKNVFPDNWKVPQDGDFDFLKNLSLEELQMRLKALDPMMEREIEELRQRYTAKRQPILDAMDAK

[2] = biological target: T2, unphosphorylated human MST2-K (kinase domain, residues 1-314) (human) (UniProt Q13188)
T2 sequence: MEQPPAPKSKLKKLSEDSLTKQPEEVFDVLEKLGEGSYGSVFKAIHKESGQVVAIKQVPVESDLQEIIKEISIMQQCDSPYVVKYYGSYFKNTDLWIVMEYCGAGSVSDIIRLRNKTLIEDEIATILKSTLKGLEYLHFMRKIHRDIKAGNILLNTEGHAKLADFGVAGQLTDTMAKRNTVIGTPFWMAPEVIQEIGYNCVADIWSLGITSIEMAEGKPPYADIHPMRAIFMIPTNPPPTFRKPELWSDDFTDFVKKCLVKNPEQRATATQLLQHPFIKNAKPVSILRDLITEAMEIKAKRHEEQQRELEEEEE

[3] = biological target: T3, unphosphorylated human MST2-KL (kinase-linker, residues 1-433) (human) (UniProt Q13188)
T3 sequence: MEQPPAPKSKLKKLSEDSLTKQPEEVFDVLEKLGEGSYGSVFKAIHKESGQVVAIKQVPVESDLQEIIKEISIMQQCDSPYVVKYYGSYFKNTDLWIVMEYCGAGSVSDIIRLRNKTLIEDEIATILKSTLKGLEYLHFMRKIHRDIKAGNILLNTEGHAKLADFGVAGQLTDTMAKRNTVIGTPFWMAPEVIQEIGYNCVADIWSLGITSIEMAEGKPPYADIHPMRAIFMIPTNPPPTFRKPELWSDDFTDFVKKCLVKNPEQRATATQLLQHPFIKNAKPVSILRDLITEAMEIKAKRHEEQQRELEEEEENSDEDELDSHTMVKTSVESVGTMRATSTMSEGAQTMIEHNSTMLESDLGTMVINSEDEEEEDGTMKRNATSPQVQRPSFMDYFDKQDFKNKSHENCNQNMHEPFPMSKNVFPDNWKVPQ

Km^app (peptide), radiometric kinase assay, steady state, 30°C [1]: 139 µM
Km^app (peptide), radiometric kinase assay, steady state, 30°C [2]: 625 µM
Km^app (peptide), radiometric kinase assay, steady state, 30°C [3]: 804 µM
B1: biotinylated peptide substrate Biotin-…-NH2 (peptide)
peptide: Biotin-GGGENWYNTLKRKK-NH2
SMILES: CC(C)C[C@H](NC(=O)[C@@H](NC(=O)[C@H](CC(N)=O)NC(=O)[C@H](Cc1ccc(O)cc1)NC(=O)[C@H](Cc1c[nH]c2ccccc12)NC(=O)[C@H](CC(N)=O)NC(=O)[C@H](CCC(=O)O)NC(=O)CNC(=O)CNC(=O)CNC(=O)CCCC[C@@H]1SC[C@@H]2NC(=O)N[C@@H]21)[C@@H](C)O)C(=O)N[C@@H](CCCCN)C(=O)N[C@@H](CCCNC(=N)N)C(=O)N[C@@H](CCCCN)C(=O)N[C@@H](CCCCN)C(N)=O
